# Experimental data published in paper PMC8602292, “Acyl carrier protein promotes MukBEF action in Escherichia coli chromosome organization-segregation” (Nature Communications, 2021).
# B1: MukF (His-MukF) (natural protein, Escherichia coli, UniProt P60293 1-440, looked up)
# chain: MSEFSQTVPELVAWARKNDFSISLPVDRLSFLLAVATLNGERLDGEMSEGELVDAFRHVSDAFEQTSETIGVRANNAINDMVRQRLLNRFTSEQAEGNAIYRLTPLGIGITDYYIRQREFSTLRLSMQLSIVAGELKRAADAAEEGGDEFHWHRNVYAPLKYSVAEIFDSIDLTQRLMDEQQQQVKDDIAQLLNKDWRAAISSCELLLSETSGTLRELQDTLEAAGDKLQANLLRIQDATMTHDDLHFVDRLVFDLQSKLDRIISWGQQSIDLWIGYDRHVHKFIRTAIDMDKNRVFAQRLRQSVQTYFDEPWALTYANADRLLDMRDEEMALRDEEVTGELPEDLEYEEFNEIREQLAAIIEEQLAVYKTRQVPLDLGLVVREYLSQYPRARHFDVARIVIDQAVRLGVAQADFTGLPAKWQPINDYGAKVQAHVIDKY
# notes: MukF, the kleisin of Escherichia coli MukBEF; The end of the tag is read from the printed name 'His-MukF'; also called kleisin MukF; source: E. coli C3013I (NEB), pET vector, purified (TALON, HiTrap DEAE FF, Superdex 200)
# B2: MukE (MukE-His) (natural protein, Escherichia coli, UniProt P22524 1-234, looked up)
# chain: MSSTNIEQVMPVKLAQALANPLFPALDSALRSGRHIGLDELDNHAFLMDFQEYLEEFYARYNVELIRAPEGFFYLRPRSTTLIPRSVLSELDMMVGKILCYLYLSPERLANEGIFTQQELYDELLTLADEAKLLKLVNNRSTGSDVDRQKLQEKVRSSLNRLRRLGMVWFMGHDSSKFRITESVFRFGADVRAGDDPREAQRRLIRDGEAMPIENHLQLNDETEENQPDSGEEE
# notes: MukE, the KITE protein of Escherichia coli MukBEF; The end of the tag is read from the printed name 'MukE-His'; also called KITE protein MukE; source: E. coli C3013I (NEB), pET vector, purified (TALON, HiTrap DEAE FF, Superdex 200)
# How the values were obtained:
# [1] = molecular target: T1, MukB (wild type, MukB-His) (Escherichia coli, UniProt P22523 1-1486); assay: native MS; mixtures of MukB, MukE, MukF and AcpP at various concentrations of MukB; 200 mM ammonium acetate pH 8.0; details: both partners purified
# T1 construct: MukB, the SMC protein of Escherichia coli MukBEF; wild type; The end of the tag is read from the printed name 'MukB-His'; The same construct was used with co-purified AcpP or depleted of AcpP by an extended salt gradient on heparin; also called WT MukB; AcpP-depleted MukB; source: E. coli C3013I (NEB), pET vector, purified (TALON, HiTrap Heparin, Superdex 200); not shown: His tag, C-terminal, kept
# T1 sequence (looked up): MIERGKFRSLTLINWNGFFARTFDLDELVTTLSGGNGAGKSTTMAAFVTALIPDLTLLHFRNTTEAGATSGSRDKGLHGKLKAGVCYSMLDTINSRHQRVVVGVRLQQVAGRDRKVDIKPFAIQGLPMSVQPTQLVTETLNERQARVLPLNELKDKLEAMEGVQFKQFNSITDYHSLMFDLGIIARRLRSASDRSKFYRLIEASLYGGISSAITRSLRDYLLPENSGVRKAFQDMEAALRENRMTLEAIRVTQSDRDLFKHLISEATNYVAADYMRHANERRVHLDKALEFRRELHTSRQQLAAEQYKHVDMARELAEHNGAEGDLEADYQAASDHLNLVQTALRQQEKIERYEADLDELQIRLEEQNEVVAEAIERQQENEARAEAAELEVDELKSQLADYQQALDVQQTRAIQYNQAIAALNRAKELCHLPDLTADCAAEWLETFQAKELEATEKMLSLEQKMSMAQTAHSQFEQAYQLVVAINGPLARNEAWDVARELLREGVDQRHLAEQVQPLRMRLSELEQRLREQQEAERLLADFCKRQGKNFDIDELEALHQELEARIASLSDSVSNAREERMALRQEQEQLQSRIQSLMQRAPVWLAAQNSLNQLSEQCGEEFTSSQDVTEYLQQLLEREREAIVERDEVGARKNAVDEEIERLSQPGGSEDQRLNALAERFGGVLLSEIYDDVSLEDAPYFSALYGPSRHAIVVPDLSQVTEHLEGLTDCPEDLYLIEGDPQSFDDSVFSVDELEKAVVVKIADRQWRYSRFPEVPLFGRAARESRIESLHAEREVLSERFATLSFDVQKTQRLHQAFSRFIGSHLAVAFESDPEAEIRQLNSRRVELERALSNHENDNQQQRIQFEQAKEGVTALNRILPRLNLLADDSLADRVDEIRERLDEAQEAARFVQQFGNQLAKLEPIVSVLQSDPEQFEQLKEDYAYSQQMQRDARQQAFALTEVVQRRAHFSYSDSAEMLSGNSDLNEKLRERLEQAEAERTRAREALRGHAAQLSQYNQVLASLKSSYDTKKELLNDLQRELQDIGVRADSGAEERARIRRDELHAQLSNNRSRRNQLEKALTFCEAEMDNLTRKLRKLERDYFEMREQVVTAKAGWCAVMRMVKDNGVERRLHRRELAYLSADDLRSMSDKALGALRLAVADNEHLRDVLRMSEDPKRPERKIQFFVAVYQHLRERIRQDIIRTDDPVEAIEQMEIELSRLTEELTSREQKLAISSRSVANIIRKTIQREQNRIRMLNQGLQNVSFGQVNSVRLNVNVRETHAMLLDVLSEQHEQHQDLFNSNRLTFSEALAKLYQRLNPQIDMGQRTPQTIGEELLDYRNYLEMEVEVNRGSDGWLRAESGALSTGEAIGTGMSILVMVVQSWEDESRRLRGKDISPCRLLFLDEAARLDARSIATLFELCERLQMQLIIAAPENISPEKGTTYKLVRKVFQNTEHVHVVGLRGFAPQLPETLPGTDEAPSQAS
# [2] = molecular target: the molecule itself; assay: as above
Binder,binding result [1],binding result [2]
B1,binds,binds
B2,binds,–
